Biological target: monobody L3 E29Q labeled with EDANS at A12C
Experiment: fluorescence polarisation

B1: Fluc homologue from Bordetella pertussis, Bpe (natural protein)
chain: MLTYAPLNFIAIGIGATLGAWLRWVLGLRLNGAGWPWGTLTANLVGGYLIGVMVALIASHPEWPAWIRLAAVTGFLGGLTTFSTFSAETVDMLERGVYATAAAYAGASLAGSLAMTGLGLATVRLLLR
  Kd: 150 nM

Reference: article PMC5379923
